Results on one molecule are retold here after US20030165527A1 (published 2003).

For this assay, the target named is T1, collagen type I from calf skin (Boehringer) (calf, UniProt P02453 162-1217; P02465 80-1117).
T1 construct: Bought preparation coated on microtiter wells
In words: not described; control for the collagen-Fn inhibition ELISA. In general terms: In an ELISA, binding on a coated surface is turned into a signal by an enzyme label.

T1 sequence (P02453 162-1217 limits assumed, chain 1 of 2): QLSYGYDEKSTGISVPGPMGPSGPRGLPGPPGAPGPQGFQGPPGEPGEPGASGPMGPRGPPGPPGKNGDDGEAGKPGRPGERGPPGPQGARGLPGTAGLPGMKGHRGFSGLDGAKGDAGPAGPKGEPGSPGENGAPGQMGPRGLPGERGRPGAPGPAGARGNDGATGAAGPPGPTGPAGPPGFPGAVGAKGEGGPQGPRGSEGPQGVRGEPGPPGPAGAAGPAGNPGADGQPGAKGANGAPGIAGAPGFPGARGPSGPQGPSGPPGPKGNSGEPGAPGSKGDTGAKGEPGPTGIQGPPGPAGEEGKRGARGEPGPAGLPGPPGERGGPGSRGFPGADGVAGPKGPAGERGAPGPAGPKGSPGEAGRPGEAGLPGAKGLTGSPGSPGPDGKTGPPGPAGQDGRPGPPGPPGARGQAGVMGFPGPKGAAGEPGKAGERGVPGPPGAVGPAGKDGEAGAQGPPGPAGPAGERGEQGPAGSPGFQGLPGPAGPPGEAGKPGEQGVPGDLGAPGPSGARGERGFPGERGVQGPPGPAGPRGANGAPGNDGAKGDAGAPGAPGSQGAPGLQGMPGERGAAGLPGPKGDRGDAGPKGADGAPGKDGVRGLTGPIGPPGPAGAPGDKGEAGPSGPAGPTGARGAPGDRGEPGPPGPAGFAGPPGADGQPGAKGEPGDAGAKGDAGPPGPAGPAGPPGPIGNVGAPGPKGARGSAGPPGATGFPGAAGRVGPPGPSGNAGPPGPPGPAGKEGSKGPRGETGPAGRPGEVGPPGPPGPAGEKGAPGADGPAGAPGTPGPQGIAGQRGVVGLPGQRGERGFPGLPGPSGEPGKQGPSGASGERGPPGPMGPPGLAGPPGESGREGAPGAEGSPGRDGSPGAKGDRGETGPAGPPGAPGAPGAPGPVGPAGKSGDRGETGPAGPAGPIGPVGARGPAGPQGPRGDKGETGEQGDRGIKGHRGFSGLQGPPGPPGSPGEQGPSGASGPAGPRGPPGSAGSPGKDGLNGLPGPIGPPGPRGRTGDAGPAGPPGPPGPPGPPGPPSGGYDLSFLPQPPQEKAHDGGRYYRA
T1 sequence (P02465 80-1117 limits assumed, chain 2 of 2): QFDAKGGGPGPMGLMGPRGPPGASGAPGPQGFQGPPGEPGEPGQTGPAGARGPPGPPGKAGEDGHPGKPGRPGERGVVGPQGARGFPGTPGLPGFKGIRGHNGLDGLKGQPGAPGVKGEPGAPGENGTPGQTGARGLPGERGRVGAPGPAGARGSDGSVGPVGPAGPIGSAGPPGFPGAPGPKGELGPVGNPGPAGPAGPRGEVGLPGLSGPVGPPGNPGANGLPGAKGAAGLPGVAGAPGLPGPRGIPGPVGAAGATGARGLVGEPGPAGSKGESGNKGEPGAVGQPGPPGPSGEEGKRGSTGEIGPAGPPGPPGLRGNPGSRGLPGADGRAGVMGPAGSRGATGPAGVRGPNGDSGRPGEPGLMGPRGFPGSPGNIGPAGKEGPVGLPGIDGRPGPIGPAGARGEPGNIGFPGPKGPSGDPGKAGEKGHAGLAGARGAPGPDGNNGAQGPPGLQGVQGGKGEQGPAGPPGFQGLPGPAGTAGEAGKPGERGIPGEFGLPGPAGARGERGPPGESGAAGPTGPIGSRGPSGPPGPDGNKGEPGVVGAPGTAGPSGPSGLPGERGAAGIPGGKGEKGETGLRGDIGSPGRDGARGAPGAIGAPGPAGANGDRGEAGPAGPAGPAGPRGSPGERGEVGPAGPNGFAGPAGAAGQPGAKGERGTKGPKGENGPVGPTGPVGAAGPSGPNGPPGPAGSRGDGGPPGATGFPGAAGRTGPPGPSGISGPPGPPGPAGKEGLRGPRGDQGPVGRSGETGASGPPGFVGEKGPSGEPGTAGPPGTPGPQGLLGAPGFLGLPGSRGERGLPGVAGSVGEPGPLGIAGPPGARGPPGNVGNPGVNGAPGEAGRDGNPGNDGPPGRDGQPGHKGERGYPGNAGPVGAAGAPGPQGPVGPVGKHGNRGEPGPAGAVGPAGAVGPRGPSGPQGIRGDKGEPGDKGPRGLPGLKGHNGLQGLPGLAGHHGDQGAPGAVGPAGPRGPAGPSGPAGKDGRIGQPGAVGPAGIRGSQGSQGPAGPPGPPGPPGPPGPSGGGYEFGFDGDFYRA

B1: recombinant fusion protein SFS-E (mature protein SFS of Streptococcus equi subsp. equi Bd 3221 with E-tag) (other)
chain: GAALVFGGLLGSLGGSSHQARPKEQPVSSIGDDDKSHKSSSDQPTNHQHQATSPSQPTAKSSGHHGNQPQSLSVNSQGNSSGQASEPQAIPNQHHQPQGKPQHLDLGKDNSSPQPQPKPQGNSPKLPEKGLNGENQKEPEQGERGLPGLNGENQKEPEQGERGEAGPPSTPNLEGNNRKNPLKGLDGENKPKEDLDGYNHGRRDGYRVGYEDGYGGKKHKGDYPKRFDESSPKEYNDYSQGYNDNYGNGNPD
notes: PCR fragment encoding the mature SFS was cloned into pG8SAET and purified from the periplasm on an anti-E tag column; both are treated as one molecule; also called recombinant protein SFS; not shown: 13 amino acid peptide tag (E-tag) encoded by vector pG8SAET
As to B1, the binding result was “no binding”.
